Experimental data: publication PMC5994540

B1: GluN3A subunit: PNGase F (protein)
parent chain: MRRLSLWWLLSRVCLLLPPPCALVLAGVPSSSSHPQPCQILKRIGHAVRVGAVHLQPWTTAPRAASRAQEGGRAGAQRDDPESGTWRPPAPSQGARWLGSALHGRGPPGSRKLGEGAGAETLWPRDALLFAVENLNRVEGLLPYNLSLEVVMAIEAGLGDLPLMPFSSPSSPWSSDPFSFLQSVCHTVVVQGVSALLAFPQSQGEMMELDLVSSVLHIPVLSIVRHEFPRESQNPLHLQLSLENSLSSDADVTVSILTMNNWYNFSLLLCQEDWNITDFLLLTENNSKFHLESVINITANLSSTKDLLSFLQVQMDNIRNSTPTMVMFGCDMDSIRQIFEMSTQFGLSPPELHWVLGDSQNVEELRTEGLPLGLIAHGKTTQSVFEYYVQDAMELVARAVATATMIQPELALLPSTMNCMDVKTTNLTSGQYLSRFLANTTFRGLSGSIKVKGSTIISSENNFFIWNLQHDPMGKPMWTRLGSWQGGRIVMDSGIWPEQAQRHKTHFQHPNKLHLRVVTLIEHPFVFTREVDDEGLCPAGQLCLDPMTNDSSMLDRLFSSLHSSNDTVPIKFKKCCYGYCIDLLEQLAEDMNFDFDLYIVGDGKYGAWKNGHWTGLVGDLLSGTANMAVTSFSINTARSQVIDFTSPFFSTSLGILVRTRDTAAPIGAFMWPLHWTMWLGIFVALHITAIFLTLYEWKSPFGMTPKGRNRNKVFSFSSALNVCYALLFGRTAAIKPPKCWTGRFLMNLWAIFCMFCLSTYTANLAAVMVGEKIYEELSGIHDPKLHHPSQGFRFGTVRESSAEDYVRQSFPEMHEYMRRYNVPATPDGVQYLKNDPEKLDAFIMDKALLDYEVSIDADCKLLTVGKPFAIEGYGIGLPPNSPLTSNISELISQYKSHGFMDVLHDKWYKVVPCGKRSFAVTETLQMGIKHFSGLFVLLCIGFGLSILTTIGEHIVHRLLLPRIKNKSKLQYWLHTSQRFHRALNTSFVEEKQPRSKTKRVEKSRWRRWTCKTEGDSELSLFPRSNLGPQQLMVWNTSNLSHDNQRKYIFNDEEGQNQLGTQAHQDIPLPQRRRELPASLTTNGKADSLNVTRSSVIQELSELEKQIQVIRQELQLAVSRKTELEEYQKTNRTCES
B2: GluN3A subunit: GluN3A-1/4N→Q (protein)
parent chain: B1 parent chain
B3: GluN3A subunit: DNJ (protein)
parent chain: B1 parent chain
B4: GluN3A subunit: kifunensine (protein)
parent chain: B1 parent chain
B5: GluN3A subunit: DMM (protein)
parent chain: B1 parent chain
B6: GluN3A subunit: swainsonine (protein)
parent chain: B1 parent chain
B7: GluN3A subunit: tunicamycin (protein)
parent chain: B1 parent chain
B8: GluN3A subunit: GluN3A-12N→12Q (protein)
parent chain: B1 parent chain
B9: GluN3A subunit: N565Q (protein)
parent chain: B1 parent chain
B10: GluN3A subunit: N296Q (protein)
parent chain: B1 parent chain
B11: GluN3A subunit: N285Q (protein)
parent chain: B1 parent chain
B12: GluN3A subunit: GluN3A-2/2N→Q (protein)
parent chain: B1 parent chain
B13: GluN3A subunit: N426Q (protein)
parent chain: B1 parent chain
B14: GluN3A subunit: N886Q (protein)
parent chain: B1 parent chain
B15: GluN3A subunit: N300Q (protein)
parent chain: B1 parent chain
B16: GluN3A subunit: N439Q (protein)
parent chain: B1 parent chain
B17: GluN3A subunit: N549Q (protein)
parent chain: B1 parent chain
B18: GluN3A subunit: N275Q (protein)
parent chain: B1 parent chain
B19: GluN3A subunit: N320Q (protein)
parent chain: B1 parent chain
B20: GluN3A subunit: GluN3A-1/2N→Q (protein)
parent chain: B1 parent chain
B21: GluN3A subunit: DPAGT1-CDG (protein)
parent chain: B1 parent chain
B22: GluN3A subunit: ALG8-CDG (protein)
parent chain: B1 parent chain

experiment: whole-cell patch clamp, 500 μM glycine, HEK293; conditions: glycan lost; control: wild-type GluN1/GluN3A, untreated

Row | Protein | other: channel desensitisation (τw), other: τw of desensitization
1 | B1 | no change
2 | B2 | no change

experiment: surface immunofluorescence, GluN1/GluN3A in COS-7; conditions: glycan changed form; control: untreated

Row | Protein | localisation_or_trafficking
3 | B3 | no change
4 | B4 | no change
5 | B5 | no change
6 | B6 | no change

same assay, conditions: glycan lost; control: untreated

Row | Protein | localisation_or_trafficking
7 | B7 | decreases

experiment: surface/total immunofluorescence, COS-7, with GluN1-4a; conditions: glycan lost; control: wild-type GluN1/GluN3A

Row | Protein | localisation_or_trafficking
8 | B8 | abolishes
9 | B9 | no change
10 | B10 | no change
11 | B11 | no change
12 | B12 | no change
13 | B13 | no change
14 | B14 | no change
15 | B15 | no change
16 | B16 | no change
17 | B2 | decreases
18 | B17 | no change
19 | B18 | no change
20 | B19 | no change
21 | B20 | decreases

experiment: spine/shaft GFP fluorescence ratio, hippocampal neurons; conditions: glycan lost; control: wild-type GluN3A

Row | Protein | localisation_or_trafficking
22 | B8 | decreases
23 | B2 | decreases

experiment: surface biotinylation, endogenous GluN3A, rat hippocampal neurons; conditions: glycan changed form; control: untreated

Row | Protein | localisation_or_trafficking
24 | B3 | no change
25 | B4 | no change
26 | B5 | no change
27 | B6 | no change

same assay, conditions: glycan lost; control: untreated

Row | Protein | localisation_or_trafficking
28 | B7 | decreases

experiment: surface/total GFP immunofluorescence, hippocampal neuron dendrites; conditions: glycan lost; control: wild-type GluN3A

Row | Protein | localisation_or_trafficking
29 | B8 | decreases
30 | B12 | no change
31 | B2 | decreases
32 | B20 | decreases

experiment: surface/total GFP immunofluorescence, GFP-GluN3A in hippocampal neurons; conditions: glycan changed form; control: untreated

Row | Protein | localisation_or_trafficking
33 | B3 | no change
34 | B4 | no change
35 | B5 | no change
36 | B6 | no change

same assay, conditions: glycan lost; control: untreated

Row | Protein | localisation_or_trafficking
37 | B7 | decreases

experiment: surface immunofluorescence, GluN1/GluN3A in human CDG patient fibroblasts; conditions: glycan lost; control: control fibroblasts

Row | Protein | localisation_or_trafficking
38 | B21 | no change
39 | B22 | decreases
